# Reference: the RNAGym collection of RNA variant scans (doi:10.1093/molbev/msab373)
# B1: Azoarcus group I ribozyme (parent)
# chain: GUGCCUUGCGCCGGGAAACCACGCAAGGGAUGGUGUCAAAUUCGGCGAAACCUAAGCGCCCGCCCGGGCGUAUGGCAACGCCGAGCCAAGCUUCGGCGCCUGCGCCGAUGAAGGUGUAGAGACUAGACGGCACCCACCUAAGGCAAACGCUAUGGUGAAGGCAUAGUCCAGGGAGUGGCGAAAGUCACACAAACCGG
# Variants of: B1
# Assay: reverse-splicing fitness (ratio to wild type); higher = more active; in vitro selection; Mg2+ level not given
# Method in brief: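 An in vitro group I ribozyme library with randomized positions was T7-transcribed and gel-purified. In triplicate, 10 pmol RNA in EPPS pH 7.5 was reacted with 50 pmoles of a 30-nt RNA substrate for 1 h at 37 °C across several added MgCl2 levels (1–48 mM), then stopped with EDTA. Products were reverse transcribed from a substrate-complementary primer, PCR-amplified and sequenced (HiSeq 4000). Fitness is a variant's read proportion after selection over that before, normalised to wild type.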
row,Variant,reverse-splicing fitness
1,GUGCCUUGCGCCGGGAAACCACGCAAGGGAUGGUGUCAAAUUCGGCGAAACCUAAGCGCCCGCCCGGGCGUAUGGCAACGCCGAGCCAAGCUUCGGCGCCUGCGCCGAUGAAGGUGUAGUGACUAGACGGCACCCACCUAAGGCCAACGAUAUGGUGAAGGCAUAGUCUAGGGAGUGGCGAAAGUCACACAAACCGG,0.0192
2,GUGCCUUGCGCCGGGAAACCACGCAAGGGAUGGUGUCAAAUUCGGCGAAACCUAAGCGCCCGCCCGGGCGUAUGGCAACGCCGAGCCAAGCUUCGGCGCCUGCGCCGAUGAAGGUGUAGUGACUAGACGGCACCCACCUAAGGCCAACGAUAUGGUGAAGGCAUAGUCGAGGGAGUGGCGAAAGUCACACAAACCGG,0.0132
3,GUGCCUUGCGCCGGGAAACCACGCAAGGGAUGGUGUCAAAUUCGGCGAAACCUAAGCGCCCGCCCGGGCGUAUGGCAACGCCGAGCCAAGCUUCGGCGCCUGCGCCGAUGAAGGUGUAGUGACUAGACGGCACCCACCUAAGGCCAACGUUAUGGUGAAGGCAUAGUCAAGGGAGAGGCGAAAGUCACACAAACCGG,0.00179
4,GUGCCUUGCGCCGGGAAACCACGCAAGGGAUGGUGUCAAAUUCGGCGAAACCUAAGCGCCCGCCCGGGCGUAUGGCAACGCCGAGCCAAGCUUCGGCGCCUGCGCCGAUGAAGGUGUAGUGACUAGACGGCACCCACCUAAGGCCAACGAUAUGGUGAAGGCAUAGUCUAGGGAGCGGCGAAAGUCACACAAACCGG,0.00371
5,GUGCCUUGCGCCGGGAAACCACGCAAGGGAUGGUGUCAAAUUCGGCGAAACCUAAGCGCCCGCCCGGGCGUAUGGCAACGCCGAGCCAAGCUUCGGCGCCUGCGCCGAUGAAGGUGUAGUGACUAGACGGCACCCACCUAAGGCCAACGAUAUGGUGAAGGCAUAGUCUAGGGAGAGGCGAAAGUCACACAAACCGG,0.00859
6,GUGCCUUGCGCCGGGAAACCACGCAAGGGAUGGUGUCAAAUUCGGCGAAACCUAAGCGCCCGCCCGGGCGUAUGGCAACGCCGAGCCAAGCUUCGGCGCCUGCGCCGAUGAAGGUGUAGUGACUAGACGGCACCCACCUAAGGCCAACGAUAUGGUGAAGGCAUAGUCUAGGGAGGGGCGAAAGUCACACAAACCGG,0.00358
7,GUGCCUUGCGCCGGGAAACCACGCAAGGGAUGGUGUCAAAUUCGGCGAAACCUAAGCGCCCGCCCGGGCGUAUGGCAACGCCGAGCCAAGCUUCGGCGCCUGCGCCGAUGAAGGUGUAGUGACUAGACGGCACCCACCUAAGGCCAACGAUAUGGUGAAGGCAUAGUCCAGGGAGAGGCGAAAGUCACACAAACCGG,0.0864
8,GUGCCUUGCGCCGGGAAACCACGCAAGGGAUGGUGUCAAAUUCGGCGAAACCUAAGCGCCCGCCCGGGCGUAUGGCAACGCCGAGCCAAGCUUCGGCGCCUGCGCCGAUGAAGGUGUAGUGACUAGACGGCACCCACCUAAGGCCAACGAUAUGGUGAAGGCAUAGUCCAGGGAGGGGCGAAAGUCACACAAACCGG,0.0538
9,GUGCCUUGCGCCGGGAAACCACGCAAGGGAUGGUGUCAAAUUCGGCGAAACCUAAGCGCCCGCCCGGGCGUAUGGCAACGCCGAGCCAAGCUUCGGCGCCUGCGCCGAUGAAGGUGUAGUGACUAGACGGCACCCACCUAAGGCCAACGAUAUGGUGAAGGCAUAGUCCAGGGAGCGGCGAAAGUCACACAAACCGG,0.061
10,GUGCCUUGCGCCGGGAAACCACGCAAGGGAUGGUGUCAAAUUCGGCGAAACCUAAGCGCCCGCCCGGGCGUAUGGCAACGCCGAGCCAAGCUUCGGCGCCUGCGCCGAUGAAGGUGUAGUGACUAGACGGCACCCACCUAAGGCCAACGGUAUGGUGAAGGCAUAGUCGAGGGAGAGGCGAAAGUCACACAAACCGG,0.00551
11,GUGCCUUGCGCCGGGAAACCACGCAAGGGAUGGUGUCAAAUUCGGCGAAACCUAAGCGCCCGCCCGGGCGUAUGGCAACGCCGAGCCAAGCUUCGGCGCCUGCGCCGAUGAAGGUGUAGUGACUAGACGGCACCCACCUAAGGCCAACGGUAUGGUGAAGGCAUAGUCGAGGGAGGGGCGAAAGUCACACAAACCGG,0.00252
12,GUGCCUUGCGCCGGGAAACCACGCAAGGGAUGGUGUCAAAUUCGGCGAAACCUAAGCGCCCGCCCGGGCGUAUGGCAACGCCGAGCCAAGCUUCGGCGCCUGCGCCGAUGAAGGUGUAGUGACUAGACGGCACCCACCUAAGGCCAACGGUAUGGUGAAGGCAUAGUCGAGGGAGCGGCGAAAGUCACACAAACCGG,0.00281
13,GUGCCUUGCGCCGGGAAACCACGCAAGGGAUGGUGUCAAAUUCGGCGAAACCUAAGCGCCCGCCCGGGCGUAUGGCAACGCCGAGCCAAGCUUCGGCGCCUGCGCCGAUGAAGGUGUAGUGACUAGACGGCACCCACCUAAGGCCAACGUUAUGGUGAAGGCAUAGUCCAGGGAGUGGCGAAAGUCACACAAACCGG,0.459
14,GUGCCUUGCGCCGGGAAACCACGCAAGGGAUGGUGUCAAAUUCGGCGAAACCUAAGCGCCCGCCCGGGCGUAUGGCAACGCCGAGCCAAGCUUCGGCGCCUGCGCCGAUGAAGGUGUAGUGACUAGACGGCACCCACCUAAGGCCAACGGUAUGGUGAAGGCAUAGUCCAGGGAGUGGCGAAAGUCACACAAACCGG,0.293
15,GUGCCUUGCGCCGGGAAACCACGCAAGGGAUGGUGUCAAAUUCGGCGAAACCUAAGCGCCCGCCCGGGCGUAUGGCAACGCCGAGCCAAGCUUCGGCGCCUGCGCCGAUGAAGGUGUAGUGACUAGACGGCACCCACCUAAGGCCAACGUUAUGGUGAAGGCAUAGUCAAGGGAGUGGCGAAAGUCACACAAACCGG,0.00515
16,GUGCCUUGCGCCGGGAAACCACGCAAGGGAUGGUGUCAAAUUCGGCGAAACCUAAGCGCCCGCCCGGGCGUAUGGCAACGCCGAGCCAAGCUUCGGCGCCUGCGCCGAUGAAGGUGUAGUGACUAGACGGCACCCACCUAAGGCCAACGAUAUGGUGAAGGCAUAGUCGAGGGAGGGGCGAAAGUCACACAAACCGG,0.00221
17,GUGCCUUGCGCCGGGAAACCACGCAAGGGAUGGUGUCAAAUUCGGCGAAACCUAAGCGCCCGCCCGGGCGUAUGGCAACGCCGAGCCAAGCUUCGGCGCCUGCGCCGAUGAAGGUGUAGUGACUAGACGGCACCCACCUAAGGCCAACGAUAUGGUGAAGGCAUAGUCGAGGGAGAGGCGAAAGUCACACAAACCGG,0.00491
18,GUGCCUUGCGCCGGGAAACCACGCAAGGGAUGGUGUCAAAUUCGGCGAAACCUAAGCGCCCGCCCGGGCGUAUGGCAACGCCGAGCCAAGCUUCGGCGCCUGCGCCGAUGAAGGUGUAGUGACUAGACGGCACCCACCUAAGGCCAACGAUAUGGUGAAGGCAUAGUCGAGGGAGCGGCGAAAGUCACACAAACCGG,0.0032
19,GUGCCUUGCGCCGGGAAACCACGCAAGGGAUGGUGUCAAAUUCGGCGAAACCUAAGCGCCCGCCCGGGCGUAUGGCAACGCCGAGCCAAGCUUCGGCGCCUGCGCCGAUGAAGGUGUAGUGACUAGACGGCACCCACCUAAGGCCAACGGUAUGGUGAAGGCAUAGUCCAGGGAGGGGCGAAAGUCACACAAACCGG,0.0278
20,GUGCCUUGCGCCGGGAAACCACGCAAGGGAUGGUGUCAAAUUCGGCGAAACCUAAGCGCCCGCCCGGGCGUAUGGCAACGCCGAGCCAAGCUUCGGCGCCUGCGCCGAUGAAGGUGUAGUGACUAGACGGCACCCACCUAAGGCCAACGGUAUGGUGAAGGCAUAGUCCAGGGAGCGGCGAAAGUCACACAAACCGG,0.121
21,GUGCCUUGCGCCGGGAAACCACGCAAGGGAUGGUGUCAAAUUCGGCGAAACCUAAGCGCCCGCCCGGGCGUAUGGCAACGCCGAGCCAAGCUUCGGCGCCUGCGCCGAUGAAGGUGUAGUGACUAGACGGCACCCACCUAAGGCCAACGGUAUGGUGAAGGCAUAGUCCAGGGAGAGGCGAAAGUCACACAAACCGG,0.132
22,GUGCCUUGCGCCGGGAAACCACGCAAGGGAUGGUGUCAAAUUCGGCGAAACCUAAGCGCCCGCCCGGGCGUAUGGCAACGCCGAGCCAAGCUUCGGCGCCUGCGCCGAUGAAGGUGUAGUGACUAGACGGCACCCACCUAAGGCCAACGGUAUGGUGAAGGCAUAGUCUAGGGAGUGGCGAAAGUCACACAAACCGG,0.0478
23,GUGCCUUGCGCCGGGAAACCACGCAAGGGAUGGUGUCAAAUUCGGCGAAACCUAAGCGCCCGCCCGGGCGUAUGGCAACGCCGAGCCAAGCUUCGGCGCCUGCGCCGAUGAAGGUGUAGUGACUAGACGGCACCCACCUAAGGCCAACGGUAUGGUGAAGGCAUAGUCGAGGGAGUGGCGAAAGUCACACAAACCGG,0.0341
24,GUGCCUUGCGCCGGGAAACCACGCAAGGGAUGGUGUCAAAUUCGGCGAAACCUAAGCGCCCGCCCGGGCGUAUGGCAACGCCGAGCCAAGCUUCGGCGCCUGCGCCGAUGAAGGUGUAGUGACUAGACGGCACCCACCUAAGGCCAACGGUAUGGUGAAGGCAUAGUCAAGGGAGUGGCGAAAGUCACACAAACCGG,0.00349
25,GUGCCUUGCGCCGGGAAACCACGCAAGGGAUGGUGUCAAAUUCGGCGAAACCUAAGCGCCCGCCCGGGCGUAUGGCAACGCCGAGCCAAGCUUCGGCGCCUGCGCCGAUGAAGGUGUAGUGACUAGACGGCACCCACCUAAGGCCAACGGUAUGGUGAAGGCAUAGUCUAGGGAGCGGCGAAAGUCACACAAACCGG,0.00753
26,GUGCCUUGCGCCGGGAAACCACGCAAGGGAUGGUGUCAAAUUCGGCGAAACCUAAGCGCCCGCCCGGGCGUAUGGCAACGCCGAGCCAAGCUUCGGCGCCUGCGCCGAUGAAGGUGUAGUGACUAGACGGCACCCACCUAAGGCCAACGGUAUGGUGAAGGCAUAGUCUAGGGAGAGGCGAAAGUCACACAAACCGG,0.00626
27,GUGCCUUGCGCCGGGAAACCACGCAAGGGAUGGUGUCAAAUUCGGCGAAACCUAAGCGCCCGCCCGGGCGUAUGGCAACGCCGAGCCAAGCUUCGGCGCCUGCGCCGAUGAAGGUGUAGUGACUAGACGGCACCCACCUAAGGCCAACGGUAUGGUGAAGGCAUAGUCUAGGGAGGGGCGAAAGUCACACAAACCGG,0.00273
28,GUGCCUUGCGCCGGGAAACCACGCAAGGGAUGGUGUCAAAUUCGGCGAAACCUAAGCGCCCGCCCGGGCGUAUGGCAACGCCGAGCCAAGCUUCGGCGCCUGCGCCGAUGAAGGUGUAGUGACUAGACGGCACCCACCUAAGGCCAACGGUAUGGUGAAGGCAUAGUCAAGGGAGCGGCGAAAGUCACACAAACCGG,0.00228
29,GUGCCUUGCGCCGGGAAACCACGCAAGGGAUGGUGUCAAAUUCGGCGAAACCUAAGCGCCCGCCCGGGCGUAUGGCAACGCCGAGCCAAGCUUCGGCGCCUGCGCCGAUGAAGGUGUAGUGACUAGACGGCACCCACCUAAGGCCAACGGUAUGGUGAAGGCAUAGUCAAGGGAGAGGCGAAAGUCACACAAACCGG,0.00247
30,GUGCCUUGCGCCGGGAAACCACGCAAGGGAUGGUGUCAAAUUCGGCGAAACCUAAGCGCCCGCCCGGGCGUAUGGCAACGCCGAGCCAAGCUUCGGCGCCUGCGCCGAUGAAGGUGUAGUGACUAGACGGCACCCACCUAAGGCCAACGGUAUGGUGAAGGCAUAGUCAAGGGAGGGGCGAAAGUCACACAAACCGG,0.00186
